Results from patent US20080199514A1 (BURNHAM INSTITUTE, published 2008).

Molecular target: T1, Lck phosphopeptide (ARLIEDNEpYTAAREG)
T1 chain: ARLIEDNEYTAAREG

B1: full length Hemagglutinin (HA) tagged LYP having W620 (protein)
chain: MDQREILQKFLDEAQSKKITKEEFANEFLKLKRQSTKYKADKTYPTTVAEKPKNIKKNRYKDILPYDYSRVELSLITSDEDSSYINANFIKGVYGPKAYIATQGPLSTTLLDFWRMIWEYSVLIIVMACMEYEMGKKKCERYWAEPGEMQLEFGPFSVSCEAEKRKSDYIIRTLKVKFNSETRTIYQFHYKNWPDHDVPSSIDPILELIWDVRCYQEDDSVPICIHCSAGCGRTGVICAIDYTWMLLKDGIIPENFSVFSLIREMRTQRPSLVQTQEQYELVYNAVLELFKRQMDVIRDKHSGTESQAKHCIPEKNHTLQADSYSPNLPKSTTKAAKMMNQQRTKMEIKESSSFDFRTSEISAKEELVLHPAKSSTSFDFLELNYSFDKNADTTMKWQTKAFPIVGEPLQKHQSLDLGSLLFEGCSNSKPVNAAGRYFNSKVPITRTKSTPFELIQQRETKEVDSKENFSYLESQPHDSCFVEMQAQKVMHVSSAELNYSLPYDSKHQIRNASNVKHHDSSALGVYSYIPLVENPYFSSWPPSGTSSKMSLDLPEKQDGTVFPSSLLPTSSTSLFSYYNSHDSLSLNSPTNISSLLNQESAVLATAPRIDDEIPPPLPVWTPESFIVVEEAGEFSPNVPKSLSSAVKVKIGTSLEWGGTSEPKKFDDSVILRPSKSVKLRSPKSELHQDRSSPPPPLPERTLESFFLADEDCMQAQSIETYSTSYPDTMENSTSSKQTLKTPGKSFTRSKSLKILRNMKKSICNSCPPNKPAESVQSNNSSSFLNFGFANRFSKPKGPRNPPPTWNI
For B1, the “Dephosphorylation of an Lck phosphopeptide by immunoprecipitated HA-tagged LYP; specific activity relative to LYP*R620” value was “LYP*W620 displayed a 57.2% (±9.8%, n=5) higher specific activity when corrected for amount of protein”.
